Measurements taken from article doi:10.1101/2020.11.27.401307.

T1: LARP6C La-module (Arabidopsis thaliana, UniProt Q9LHL3 137-332)
T1 sequence: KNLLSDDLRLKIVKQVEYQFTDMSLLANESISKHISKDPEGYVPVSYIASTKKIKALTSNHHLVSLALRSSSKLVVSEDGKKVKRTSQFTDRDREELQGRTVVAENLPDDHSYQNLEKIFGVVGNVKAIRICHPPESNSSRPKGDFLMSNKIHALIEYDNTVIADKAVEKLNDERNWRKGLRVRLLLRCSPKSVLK

B1: B1 (ssRNA)
RNA: CUUCUUUCUUUCUUUUUUGUU
B2: B2 (ssRNA)
RNA: UCUCUCUGUUUCUUAUUCAUC
B3: A2 (ssRNA)
RNA: GAGAGAGGAGAAGAA
B4: oligo(U20) (ssRNA)
RNA: UUUUUUUUUUUUUUUUUUUU
B5: B3 (ssRNA)
RNA: CCUCUCCCCCCCUCCCCCCUC
B6: A1 (ssRNA)
RNA: AAAAAAGAAGAAAAA

What was measured:
LARP6C La-module [1] = target: T1, LARP6C La-module; assay: ITC
LARP6C La-module [2] = target: T1, LARP6C La-module; assay: EMSA
LARP6C La-module [3] = target: T1, LARP6C La-module; assay: EMSA; remark: listed apart in the source
LARP6C La-module [4] = target: T1, LARP6C La-module; assay: EMSA; remark: listed apart in the source

Row | Binder | Kd (LARP6C La-module [1]) [µM] | Kd (LARP6C La-module [2]) [µM] | Kd (LARP6C La-module [3]) [µM] | binding result (LARP6C La-module [1]) | further results
1 | B1 | 2.8 | 0.8 ± 0.1 | 3.5 ± 0.3 | – | –
2 | B2 | 3.7 | 1.9 ± 0.3 | 5.6 ± 0.2 | – | –
3 | B3 | – | – | – | no binding | –
4 | B4 | – | – | – | – | binding result (LARP6C La-module [4]): binds
5 | B5 | – | – | – | no binding | –
6 | B6 | – | – | – | no binding | –
